T1: CAPRIN-1 protein expressed on the membrane surface of human cancer cells (human, UniProt Q14444 2-709)
T1 sequence (looked up): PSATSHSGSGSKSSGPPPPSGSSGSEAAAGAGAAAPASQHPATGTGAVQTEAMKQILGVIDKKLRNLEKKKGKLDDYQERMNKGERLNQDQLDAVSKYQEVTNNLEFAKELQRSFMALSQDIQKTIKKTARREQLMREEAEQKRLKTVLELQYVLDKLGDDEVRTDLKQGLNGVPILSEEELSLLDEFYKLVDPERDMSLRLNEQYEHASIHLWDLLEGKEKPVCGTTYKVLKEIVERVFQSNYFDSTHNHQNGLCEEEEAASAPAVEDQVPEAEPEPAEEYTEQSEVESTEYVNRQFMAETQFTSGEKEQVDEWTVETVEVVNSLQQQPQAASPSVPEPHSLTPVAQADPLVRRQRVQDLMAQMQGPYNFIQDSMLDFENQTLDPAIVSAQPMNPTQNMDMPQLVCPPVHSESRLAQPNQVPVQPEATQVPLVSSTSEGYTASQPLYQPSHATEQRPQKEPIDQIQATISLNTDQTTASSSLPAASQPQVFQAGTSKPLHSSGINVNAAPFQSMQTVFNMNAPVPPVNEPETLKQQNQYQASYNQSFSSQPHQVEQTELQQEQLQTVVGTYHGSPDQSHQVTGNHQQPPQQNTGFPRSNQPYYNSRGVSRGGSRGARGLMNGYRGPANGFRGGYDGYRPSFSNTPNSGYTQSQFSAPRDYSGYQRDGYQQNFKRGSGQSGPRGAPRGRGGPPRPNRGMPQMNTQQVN

B1: humanized antibody #0 (antibody, V domains shown)
VH: EVQLVESGGGLVQPGGSLRLSCAASGFSLSSHSLGWVRQAPGKGLEWIGDIRSGGSAYYANWAKGRFTISRDNSKNTLYLQMNSLRAEDTAVYFCTRTNGPSDLTNRLDLWGQGTLVTVSS
VL: AIQMTQSPSSLSASVGDRVTINCQASQSLYNNENLAWFQQKPGKAPKRLIYGASTLASGVSSRFSGSGSGTDFTLTISSLQPEDFAIYYCLGEFSCGSADCFAFGGGTKVEIK
B2: humanized antibody #3 (antibody, V domains shown)
VH: EVQLVESGGGLVQPGGSLRLSCAASGFSLSSHSLGWVRQAPGKGLEWIGDIRSGGSAYYANWAKGRFTISRDNSKNTLYLQMNSLRAEDTAVYYCTRTNGPSDLTNRLDLWGQGTLVTVSS
VL: EQVLTQSPSSLSASVGDRVTINCQASQSLYNNENLAWFQQKPGKVPKRLIYGASTLASGVSSRFSGSGSGTEFTLTISNLQPEDFAIYYCLGEFSCGSADCFAFGGGTKVEIK
B3: humanized antibody #1 (antibody, V domains shown)
VH: EVQLVESGGGLVQPGGSLRLSCAASGFSLSSHSLGWVRQAPGKGLEWIGDIRSGGSAYYANWAKGRFTISRDNSKNTLYLQMNSLRAEDTAVYYCTRTNGPSDLTNRLDLWGQGTLVTVSS
VL: AIQMTQSPSSLSASVGDRVTINCQASQSLYNNENLAWFQQKPGKAPKRLIYGASTLASGVSSRFSGSGSGTDFTLTISSLQPEDFAIYYCLGEFSCGSADCFAFGGGTKVEIK
B4: humanized antibody #4 (antibody, V domains shown)
VH: EVQLVESGGGLVQPGGSLRLSCAASGFSLSSHSLGWVRQAPGKGLEWIGDIRSGGSAYYANWAKGRFTISRDNSKNTLYLQMNSLRAEDTAVYFCTRTNGPSDLTNRLDLWGQGTLVTVSS
VL: EIVLTQSPSSLSASVGDRVTINCQASQSLYNNENLAWFQQKPGKVPKRLIYGASTLASGVSSRFSGSGSGTEFTLTISNLQPEDFATYYCLGEFSCGSADCFAFGGGTKVEIK

Target: T1, CAPRIN-1 protein expressed on the …
Experiment: cell-based or functional assay

Row | Binder | ADCC cytotoxic activity (51Cr release) on 22Rv1 | ADCC cytotoxic activity (51Cr release) on A-673 | ADCC cytotoxic activity (51Cr release) on BT-474 | ADCC cytotoxic activity (51Cr release) on Caki-2 | ADCC cytotoxic activity (51Cr release) on FaDu | ADCC cytotoxic activity (51Cr release) on G-361 | ADCC cytotoxic activity (51Cr release) on HEC-1-A | ADCC cytotoxic activity (51Cr release) on HT-29 | ADCC cytotoxic activity (51Cr release) on HT-1080 | ADCC cytotoxic activity (51Cr release) on HT-1376 | ADCC cytotoxic activity (51Cr release) on Hep3B | ADCC cytotoxic activity (51Cr release) on IM-9 | ADCC cytotoxic activity (51Cr release) on MDA-MB-361 | ADCC cytotoxic activity (51Cr release) on NCI-H2452 | ADCC cytotoxic activity (51Cr release) on NCI-N87 | ADCC cytotoxic activity (51Cr release) on NT/D1 | ADCC cytotoxic activity (51Cr release) on OCI-AML5 | ADCC cytotoxic activity (51Cr release) on OE33 | ADCC cytotoxic activity (51Cr release) on Panc10.5 | ADCC cytotoxic activity (51Cr release) on QG56 | also measured
1 | B1 | ≥ 38% | ≥ 40% | ≥ 46% | ≥ 26% | ≥ 35% | ≥ 15% | ≥ 40% | ≥ 35% | ≥ 20% | ≥ 28% | ≥ 21% | ≥ 27% | ≥ 40% | ≥ 31% | ≥ 34% | ≥ 25% | ≥ 15% | ≥ 30% | ≥ 24% | ≥ 38% | ADCC cytotoxic activity (51Cr release) on RD-ES: ≥ 31%; ADCC cytotoxic activity (51Cr release) on RPM11666: ≥ 30%; ADCC cytotoxic activity (51Cr release) on Ramos: ≥ 15%; ADCC cytotoxic activity (51Cr release) on SKOV3: ≥ 27%; ADCC cytotoxic activity (51Cr release) on T24: ≥ 30%; ADCC cytotoxic activity (51Cr release) on TGBC14TKB: ≥ 25%; ADCC cytotoxic activity (51Cr release) on TT: ≥ 30%; ADCC cytotoxic activity (51Cr release) on U-87MG: ≥ 24%
2 | B2 | ≥ 45% | ≥ 46% | ≥ 50% | ≥ 33% | ≥ 40% | ≥ 21% | ≥ 45% | ≥ 40% | ≥ 25% | ≥ 40% | ≥ 25% | ≥ 30% | ≥ 45% | ≥ 39% | ≥ 38% | ≥ 30% | ≥ 18% | ≥ 33% | ≥ 30% | ≥ 42% | ADCC cytotoxic activity (51Cr release) on RD-ES: ≥ 40%; ADCC cytotoxic activity (51Cr release) on RPM11666: ≥ 36%; ADCC cytotoxic activity (51Cr release) on Ramos: ≥ 18%; ADCC cytotoxic activity (51Cr release) on SKOV3: ≥ 31%; ADCC cytotoxic activity (51Cr release) on T24: ≥ 33%; ADCC cytotoxic activity (51Cr release) on TGBC14TKB: ≥ 30%; ADCC cytotoxic activity (51Cr release) on TT: ≥ 35%; ADCC cytotoxic activity (51Cr release) on U-87MG: ≥ 29%
3 | B3 | ≥ 38% | ≥ 40% | ≥ 46% | ≥ 26% | ≥ 35% | ≥ 15% | ≥ 40% | ≥ 35% | ≥ 20% | ≥ 28% | ≥ 21% | ≥ 27% | ≥ 40% | ≥ 31% | ≥ 34% | ≥ 25% | ≥ 15% | ≥ 30% | ≥ 24% | ≥ 38% | ADCC cytotoxic activity (51Cr release) on RD-ES: ≥ 31%; ADCC cytotoxic activity (51Cr release) on RPM11666: ≥ 30%; ADCC cytotoxic activity (51Cr release) on Ramos: ≥ 15%; ADCC cytotoxic activity (51Cr release) on SKOV3: ≥ 27%; ADCC cytotoxic activity (51Cr release) on T24: ≥ 30%; ADCC cytotoxic activity (51Cr release) on TGBC14TKB: ≥ 25%; ADCC cytotoxic activity (51Cr release) on TT: ≥ 30%; ADCC cytotoxic activity (51Cr release) on U-87MG: ≥ 24%
4 | B4 | ≥ 45% | ≥ 46% | ≥ 50% | ≥ 33% | ≥ 40% | ≥ 21% | ≥ 45% | ≥ 40% | ≥ 25% | ≥ 40% | ≥ 25% | ≥ 30% | ≥ 45% | ≥ 39% | ≥ 38% | ≥ 30% | ≥ 18% | ≥ 33% | ≥ 30% | ≥ 42% | ADCC cytotoxic activity (51Cr release) on RD-ES: ≥ 40%; ADCC cytotoxic activity (51Cr release) on RPM11666: ≥ 36%; ADCC cytotoxic activity (51Cr release) on Ramos: ≥ 18%; ADCC cytotoxic activity (51Cr release) on SKOV3: ≥ 31%; ADCC cytotoxic activity (51Cr release) on T24: ≥ 33%; ADCC cytotoxic activity (51Cr release) on TGBC14TKB: ≥ 30%; ADCC cytotoxic activity (51Cr release) on TT: ≥ 35%; ADCC cytotoxic activity (51Cr release) on U-87MG: ≥ 29%
